{"source": "paper PMC4891260", "about": "(2015)", "binders": {"B1": {"name": "1D9 TCR (TCR)", "alpha TRAV1 TRAJ30 CDR3": "CAVRSDTNAYKVIF", "beta TRBV19 TRBJ2-7 CDR3": "CASSKRLSSYEQYF"}}, "biological_target": "T1, DEAD box helicase p68 S551F (mp68) peptide on H-2Kb (mouse)", "T1 peptide": "SNFVFAGI", "assay": "killing"}
{"binder": "B1", "values": [{"measurement": "binding result", "result": "recognises"}]}
